Our source for the screen value values is article PMC7954794 (2021).

To fix the notation:
B1: S. cerevisiae Abp1 (full length; SH3 domain 535-592 mutated) / Hua2 (parent complex)
chain 1: MALEPIDYTTHSREIDAEYLKIVRGSDPDTTWLIISPNAKKEYEPESTGSSFHDFLQLFDETKVQYGLARVSPPGSDVEKIIIIGWCPDSAPLKTRASFAANFAAVANNLFKGYHVQVTARDEDDLDENELLMKISNAAGARYSIQTSSKQQGKASTPPVKKSFTPSKSPAPVSKKEPVKTPSPAPAAKISSRVNDNNDDDDWNEPELKERDFDQAPLKPNQSSYKPIGKIDLQKVIAEEKAKEDPRLVQKPTAAGSKIDPSSDIANLKNESKLKRDSEFNSFLGTTKPPSMTESSLKNDDDKVIKGFRNEKSPAQLWAERKAKQNSGNAETKAEAPKPEVPEDEPEGEPDVKDLKSKFEGLAASEKEEEEMENKFAPPPKKSEPTIISPKPFSKPQEPVKAEEAEQPKTDYKKIGNPLPGMHIEADNEEEPEENDDDWDDDEDEAAQPPLPSRNVASGAPVQKEEPEQEEIAPSLPSRNSIPAPKQEEAPEQAPEEEIEEEAEEAAPQLPSRSSAAPPPPPRRATPEKKPKENPWATAEYDYDAAEDNELTFVENDKIINIEFVDDDWWLGELEKDGSKGLFPSNYVSLGN
chain 2: MQQTKFGKMYLDHDSVVEYSEDEIVEADRITLGYKKRLSMIENQMRHLLEDFSLDVQQIEPILADLQKYYDAFLQLLQKRNKSLQCKRSTHQPVPSPMNSQTSTNAKVNLSGKLMKFQLNSVQKFDEENILRILQNKIEFEHYFQIDKGKKQKVLLLAVYQCLNGPTRLHKVLNIEGIIHNNSIRTILGKQVSSSKWTVFLYDVKLVLLAHRQDVPNLETSKMIVRYGDLFPCALYFKDHTAY

In the test the parent is B1. As to the kind of experiment: DHFR protein-fragment complementation in yeast (Abp1-DHFR F[1,2] x partner-DHFR F[3]), deep mutational scanning, second methotrexate selection vs reference; S. cerevisiae, DHFR-PCA selection in liquid with methotrexate at 30 C, two 72 h selections (the score uses the second); reference = the pre-selection culture.
Consider chain 1 E555V, for which the screen value is -0.0654 DMS score: mean over two replicates of log2(f_test/f_ref + 0.5)/ln 2, minus the synonymous-codon median (not a log2 ….
Take chain 1 E555C: the screen value is -0.0642 DMS score: mean over two replicates of log2(f_test/f_ref + 0.5)/ln 2, minus the synonymous-codon median (not a log2 ….
With chain 1 E555K, the screen value is 0.347 DMS score: mean over two replicates of log2(f_test/f_ref + 0.5)/ln 2, minus the synonymous-codon median (not a log2 ….
The result for chain 1 E555T reads 0.557 DMS score: mean over two replicates of log2(f_test/f_ref + 0.5)/ln 2, minus the synonymous-codon median (not a log2 ….
For chain 1 E555L, the screen value is -0.165 DMS score: mean over two replicates of log2(f_test/f_ref + 0.5)/ln 2, minus the synonymous-codon median (not a log2 ….
On to chain 1 E540N, for which the screen value was -1.77 DMS score: mean over two replicates of log2(f_test/f_ref + 0.5)/ln 2, minus the synonymous-codon median (not a log2 ….
For the variant chain 1 E540T, the screen value was -0.981 DMS score: mean over two replicates of log2(f_test/f_ref + 0.5)/ln 2, minus the synonymous-codon median (not a log2 ….
As to chain 1 E540R, the screen value is -2.88 DMS score: mean over two replicates of log2(f_test/f_ref + 0.5)/ln 2, minus the synonymous-codon median (not a log2 ….
For the variant chain 1 E540G, the screen value is -1.94 DMS score: mean over two replicates of log2(f_test/f_ref + 0.5)/ln 2, minus the synonymous-codon median (not a log2 ….
On to chain 1 E540Y, for which the screen value was -2.86 DMS score: mean over two replicates of log2(f_test/f_ref + 0.5)/ln 2, minus the synonymous-codon median (not a log2 ….
In the case of chain 1 E540Q, the screen value was -1.08 DMS score: mean over two replicates of log2(f_test/f_ref + 0.5)/ln 2, minus the synonymous-codon median (not a log2 ….
As to chain 1 E540D, the screen value is 0.44 DMS score: mean over two replicates of log2(f_test/f_ref + 0.5)/ln 2, minus the synonymous-codon median (not a log2 ….
With chain 1 E540S, the screen value was -1.11 DMS score: mean over two replicates of log2(f_test/f_ref + 0.5)/ln 2, minus the synonymous-codon median (not a log2 ….
On to chain 1 F553M, for which the screen value is 0.868 DMS score: mean over two replicates of log2(f_test/f_ref + 0.5)/ln 2, minus the synonymous-codon median (not a log2 ….
With chain 1 K558A the figure was -0.817 DMS score: mean over two replicates of log2(f_test/f_ref + 0.5)/ln 2, minus the synonymous-codon median (not a log2 ….
Consider chain 1 K558M, for which the screen value is -0.491 DMS score: mean over two replicates of log2(f_test/f_ref + 0.5)/ln 2, minus the synonymous-codon median (not a log2 ….
For chain 1 K558R, the screen value is 0.719 DMS score: mean over two replicates of log2(f_test/f_ref + 0.5)/ln 2, minus the synonymous-codon median (not a log2 ….
Take chain 1 K558V: the screen value is 0.774 DMS score: mean over two replicates of log2(f_test/f_ref + 0.5)/ln 2, minus the synonymous-codon median (not a log2 ….
As for chain 1 D544C, the screen value was 1.15 DMS score: mean over two replicates of log2(f_test/f_ref + 0.5)/ln 2, minus the synonymous-codon median (not a log2 ….
With chain 1 D544S, the screen value is 0.42 DMS score: mean over two replicates of log2(f_test/f_ref + 0.5)/ln 2, minus the synonymous-codon median (not a log2 ….
As to chain 1 D544R, the screen value was 0.711 DMS score: mean over two replicates of log2(f_test/f_ref + 0.5)/ln 2, minus the synonymous-codon median (not a log2 ….
With chain 1 F564Y the figure was 0.127 DMS score: mean over two replicates of log2(f_test/f_ref + 0.5)/ln 2, minus the synonymous-codon median (not a log2 …; with chain 1 D542H, -0.15 DMS score: mean over two replicates of log2(f_test/f_ref + 0.5)/ln 2, minus the synonymous-codon median (not a log2 …; with chain 1 D542T, 0.719 DMS score: mean over two replicates of log2(f_test/f_ref + 0.5)/ln 2, minus the synonymous-codon median (not a log2 ….
With chain 1 D542R the figure was -0.244 DMS score: mean over two replicates of log2(f_test/f_ref + 0.5)/ln 2, minus the synonymous-codon median (not a log2 …; with chain 1 A539V, -0.172 DMS score: mean over two replicates of log2(f_test/f_ref + 0.5)/ln 2, minus the synonymous-codon median (not a log2 ….
On to chain 1 I560E, for which the screen value was -0.924 DMS score: mean over two replicates of log2(f_test/f_ref + 0.5)/ln 2, minus the synonymous-codon median (not a log2 ….
Take chain 1 I560R: the screen value was 0.102 DMS score: mean over two replicates of log2(f_test/f_ref + 0.5)/ln 2, minus the synonymous-codon median (not a log2 ….
Regarding chain 1 I560T, the screen value is -0.415 DMS score: mean over two replicates of log2(f_test/f_ref + 0.5)/ln 2, minus the synonymous-codon median (not a log2 ….
As for chain 1 I560F, the screen value is -0.852 DMS score: mean over two replicates of log2(f_test/f_ref + 0.5)/ln 2, minus the synonymous-codon median (not a log2 ….
Regarding chain 1 I560K, the screen value is 0.427 DMS score: mean over two replicates of log2(f_test/f_ref + 0.5)/ln 2, minus the synonymous-codon median (not a log2 ….
Consider chain 1 N549W, for which the screen value is -2.49 DMS score: mean over two replicates of log2(f_test/f_ref + 0.5)/ln 2, minus the synonymous-codon median (not a log2 ….
Take chain 1 N549T: the screen value was 1.38 DMS score: mean over two replicates of log2(f_test/f_ref + 0.5)/ln 2, minus the synonymous-codon median (not a log2 ….
For the variant chain 1 N549F, the screen value was 0.0612 DMS score: mean over two replicates of log2(f_test/f_ref + 0.5)/ln 2, minus the synonymous-codon median (not a log2 ….
As for chain 1 N549P, the screen value is -0.774 DMS score: mean over two replicates of log2(f_test/f_ref + 0.5)/ln 2, minus the synonymous-codon median (not a log2 ….
For the variant chain 1 N549M, the screen value is 1.68 DMS score: mean over two replicates of log2(f_test/f_ref + 0.5)/ln 2, minus the synonymous-codon median (not a log2 ….
The result for chain 1 L571H reads 0.744 DMS score: mean over two replicates of log2(f_test/f_ref + 0.5)/ln 2, minus the synonymous-codon median (not a log2 ….
As for chain 1 L571I, the screen value is -0.705 DMS score: mean over two replicates of log2(f_test/f_ref + 0.5)/ln 2, minus the synonymous-codon median (not a log2 ….
The result for chain 1 L571N reads -0.368 DMS score: mean over two replicates of log2(f_test/f_ref + 0.5)/ln 2, minus the synonymous-codon median (not a log2 …; that for chain 1 L571S, -0.425 DMS score: mean over two replicates of log2(f_test/f_ref + 0.5)/ln 2, minus the synonymous-codon median (not a log2 …; that for chain 1 L571T, -0.86 DMS score: mean over two replicates of log2(f_test/f_ref + 0.5)/ln 2, minus the synonymous-codon median (not a log2 ….
For the variant chain 1 L571V, the screen value is -0.465 DMS score: mean over two replicates of log2(f_test/f_ref + 0.5)/ln 2, minus the synonymous-codon median (not a log2 ….
For chain 1 L571K, the screen value is -0.248 DMS score: mean over two replicates of log2(f_test/f_ref + 0.5)/ln 2, minus the synonymous-codon median (not a log2 ….
For the variant chain 1 L574T, the screen value is -0.934 DMS score: mean over two replicates of log2(f_test/f_ref + 0.5)/ln 2, minus the synonymous-codon median (not a log2 ….
Take chain 1 L574C: the screen value is -0.496 DMS score: mean over two replicates of log2(f_test/f_ref + 0.5)/ln 2, minus the synonymous-codon median (not a log2 ….
As to chain 1 L574I, the screen value was -0.989 DMS score: mean over two replicates of log2(f_test/f_ref + 0.5)/ln 2, minus the synonymous-codon median (not a log2 ….
On to chain 1 Y541A, for which the screen value was -1.6 DMS score: mean over two replicates of log2(f_test/f_ref + 0.5)/ln 2, minus the synonymous-codon median (not a log2 ….
Turning to chain 1 D548P, the screen value is 1.53 DMS score: mean over two replicates of log2(f_test/f_ref + 0.5)/ln 2, minus the synonymous-codon median (not a log2 ….
For the variant chain 1 D548W, the screen value was -0.639 DMS score: mean over two replicates of log2(f_test/f_ref + 0.5)/ln 2, minus the synonymous-codon median (not a log2 ….
On to chain 1 D548C, for which the screen value is 0.141 DMS score: mean over two replicates of log2(f_test/f_ref + 0.5)/ln 2, minus the synonymous-codon median (not a log2 ….
With chain 1 D548Q, the screen value was 0.195 DMS score: mean over two replicates of log2(f_test/f_ref + 0.5)/ln 2, minus the synonymous-codon median (not a log2 ….
Consider chain 1 D548G, for which the screen value is -0.301 DMS score: mean over two replicates of log2(f_test/f_ref + 0.5)/ln 2, minus the synonymous-codon median (not a log2 ….
chain 1 D548H: the screen value was 0.00293 DMS score: mean over two replicates of log2(f_test/f_ref + 0.5)/ln 2, minus the synonymous-codon median (not a log2 ….
With chain 1 G591L the figure was -0.124 DMS score: mean over two replicates of log2(f_test/f_ref + 0.5)/ln 2, minus the synonymous-codon median (not a log2 ….
For chain 1 G591F, the screen value was 0.26 DMS score: mean over two replicates of log2(f_test/f_ref + 0.5)/ln 2, minus the synonymous-codon median (not a log2 ….
Take chain 1 G591K: the screen value is 0.45 DMS score: mean over two replicates of log2(f_test/f_ref + 0.5)/ln 2, minus the synonymous-codon median (not a log2 ….
With chain 1 N561H, the screen value was -0.956 DMS score: mean over two replicates of log2(f_test/f_ref + 0.5)/ln 2, minus the synonymous-codon median (not a log2 ….
Consider chain 1 P535N, for which the screen value was 0.729 DMS score: mean over two replicates of log2(f_test/f_ref + 0.5)/ln 2, minus the synonymous-codon median (not a log2 ….
With chain 1 P535Y the figure was 0.518 DMS score: mean over two replicates of log2(f_test/f_ref + 0.5)/ln 2, minus the synonymous-codon median (not a log2 …; with chain 1 P535C, 1.46 DMS score: mean over two replicates of log2(f_test/f_ref + 0.5)/ln 2, minus the synonymous-codon median (not a log2 ….
The result for chain 1 P535F reads 0.0686 DMS score: mean over two replicates of log2(f_test/f_ref + 0.5)/ln 2, minus the synonymous-codon median (not a log2 ….
As to chain 1 P535G, the screen value is -0.0677 DMS score: mean over two replicates of log2(f_test/f_ref + 0.5)/ln 2, minus the synonymous-codon median (not a log2 ….
For chain 1 N586I, the screen value is 0.632 DMS score: mean over two replicates of log2(f_test/f_ref + 0.5)/ln 2, minus the synonymous-codon median (not a log2 ….
Regarding chain 1 N586P, the screen value was -0.0573 DMS score: mean over two replicates of log2(f_test/f_ref + 0.5)/ln 2, minus the synonymous-codon median (not a log2 ….
Consider chain 1 N586M, for which the screen value is 2.45 DMS score: mean over two replicates of log2(f_test/f_ref + 0.5)/ln 2, minus the synonymous-codon median (not a log2 ….
In the case of chain 1 N586H, the screen value was -1.55 DMS score: mean over two replicates of log2(f_test/f_ref + 0.5)/ln 2, minus the synonymous-codon median (not a log2 ….
chain 1 N586K: the screen value was -1.55 DMS score: mean over two replicates of log2(f_test/f_ref + 0.5)/ln 2, minus the synonymous-codon median (not a log2 ….
chain 1 N586E: the screen value was -1.53 DMS score: mean over two replicates of log2(f_test/f_ref + 0.5)/ln 2, minus the synonymous-codon median (not a log2 ….
Consider chain 1 N586L, for which the screen value was -0.863 DMS score: mean over two replicates of log2(f_test/f_ref + 0.5)/ln 2, minus the synonymous-codon median (not a log2 ….
The result for chain 1 S579T reads 0.556 DMS score: mean over two replicates of log2(f_test/f_ref + 0.5)/ln 2, minus the synonymous-codon median (not a log2 …; that for chain 1 S579L, -0.943 DMS score: mean over two replicates of log2(f_test/f_ref + 0.5)/ln 2, minus the synonymous-codon median (not a log2 ….
For chain 1 S579E, the screen value is -0.235 DMS score: mean over two replicates of log2(f_test/f_ref + 0.5)/ln 2, minus the synonymous-codon median (not a log2 ….
Take chain 1 S579M: the screen value is -0.58 DMS score: mean over two replicates of log2(f_test/f_ref + 0.5)/ln 2, minus the synonymous-codon median (not a log2 ….
With chain 1 D568W, the screen value was -2.95 DMS score: mean over two replicates of log2(f_test/f_ref + 0.5)/ln 2, minus the synonymous-codon median (not a log2 ….
As to chain 1 D568E, the screen value was -1.5 DMS score: mean over two replicates of log2(f_test/f_ref + 0.5)/ln 2, minus the synonymous-codon median (not a log2 ….
